The values that follow come from patent US20210255174.

In the series the test system is SNAPtide (FITC/DABCYL), List Biological Laboratories product #521.

In the case of “BoNT/A complex (intact BoNT/A toxin complex, Metabiologics)”, the “Km of SNAPtide hydrolysis, bead-immobilized BoNT/A (bead based ALISSA)” value was “bead based ALISSA: typical Km=0.2 µM” and the “Km of SNAPtide hydrolysis, free BoNT/A (non-bead based assay)” value was “non-bead based assay: typical Km=0.7 µM”.
